From publication PMC9288512, “Development and characterization of a camelid derived antibody targeting a linear epitope in the hinge domain of human PCSK9 protein” (Scientific Reports, 2022)
Substitutions are numbered along the chain they refer to.

What was measured:
[1] = molecular target: T1, recombinant human proprotein convertase subtilisin/kexin 9 (hPCSK9), his-tagged (Homo sapiens, UniProt Q8NBP7); test: SPR; hPCSK9 (10 μg/mL in 10 mM sodium acetate pH 4.0) on flow cell 2 of a CM5 chip at 790 RU, flow cell 1 blank; VHH-based proteins injected in two-fold dilutions (five or three points); 25 °C, Biacore T200; binding 120 s, dissociation 300 s or 350 s; regeneration glycine pH 2.3; conditions: both partners purified
T1 construct: human PCSK9, recombinant, his-tagged (Sinobiological); No catalogue number is printed; also called human PCSK9; source: bought: Sinobiological, China
T1 sequence (Q8NBP7 153-692): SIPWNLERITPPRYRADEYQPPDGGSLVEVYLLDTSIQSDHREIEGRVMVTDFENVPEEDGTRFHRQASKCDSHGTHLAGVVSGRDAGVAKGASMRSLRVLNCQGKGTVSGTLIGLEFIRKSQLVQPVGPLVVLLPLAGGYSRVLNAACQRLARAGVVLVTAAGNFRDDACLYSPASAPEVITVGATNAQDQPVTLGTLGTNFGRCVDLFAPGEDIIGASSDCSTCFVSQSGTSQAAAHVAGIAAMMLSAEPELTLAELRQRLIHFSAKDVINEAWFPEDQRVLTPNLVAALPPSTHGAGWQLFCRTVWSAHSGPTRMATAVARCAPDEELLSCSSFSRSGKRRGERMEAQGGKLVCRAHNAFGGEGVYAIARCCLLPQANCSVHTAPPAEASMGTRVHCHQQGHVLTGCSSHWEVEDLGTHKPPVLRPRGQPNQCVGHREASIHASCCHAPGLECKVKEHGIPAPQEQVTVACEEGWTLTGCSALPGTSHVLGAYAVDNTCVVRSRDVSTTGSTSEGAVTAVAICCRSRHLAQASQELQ

[2] = molecular target: T1, recombinant human proprotein convertase …; test: as above; conditions: both partners purified; remark: listed apart in the source

B1: VHH-Z1 (VHH-B11 humanized mutant) (VHH)
VHH: EVQLLESGGGLVQPGGSLRLSCTVSGYTYSSNCMGWFRQAPGKEHEGVSSIYIGGGSTYYADSVKGRFTISRDNSKNTLYLQMNSLRAEDTAVYYCAVGCQGLVDFGYWDQGTQVTVSS
notes: as the chain of m2, mutated at several of the 17 hotspots; has 80Pro in FR3; source: P. pastoris X33, secreted, purified
B1: binds [1].

B2: VHH-Z5 (VHH-B11 humanized mutant) (VHH)
VHH: B1 VHH with T23A, V24A, R72Q, L79V
notes: as the chain of m2, mutated at several of the 17 hotspots; has 87Val in FR3; source: P. pastoris X33, secreted, purified
B2: binds [1].

B3: humanized VHH-B11 (Hu-B11), mutated at all 17 hotspots (VHH)
VHH: B1 VHH with T23A, V24A, F37V, E44G, H45L, G47W
notes: as the chain of m2 with 17 humanising mutations in FR1-3; source: P. pastoris X33, secreted, purified
B3 showed a Kd [1] of 39.7 nM.

B4: VHH-B11 (monovalent camelid nanobody against hPCSK9) (VHH)
VHH: QVQLQESGGGSVQAGGSLRLSCTVSGYTYSSNCMGWFRQAPGKEHEGVASIYIGGGSTYYADSVKGRFTISQDNAKNTVYLQMNSLKPEDTAMYYCAVGCQGLVDFGYWDQGTQVTVSS
notes: VHH-B11, llama nanobody; Also expressed in E. coli and HEK293F; also called VHH-B11 Ab; wild type VHH-B11
Work on B4 yielded a Kd [2] of roughly 4.4 nM.

B5: VHH-Z3 (VHH-B11 humanized mutant) (VHH)
VHH: B1 VHH with T23A, V24A, S49A, R72Q, S75A
notes: as the chain of m2, mutated at several of the 17 hotspots; has 54Ala in FR2 and 83Ala in FR3; source: P. pastoris X33, secreted, purified
B5: binds [1].
